Experiment [1] deals with Drp1 short GG (minimal GTPase-GED construct of Drp1, short splice variant) (human) (UniProt O00429). Briefly: SEC-MALS; GG constructs after 30 min at room temperature with the transition-state analog GDP.AlFx (2 mM GDP, 4 mM MgCl2, 2 mM AlCl3, 20 mM NaF); Drp1 GG 25 μM, Dyn1 GG and GG-PRD 15 μM; Superdex 75 10/300 GL. In general terms: In gel filtration, larger molecules generally elute earlier.

Experiment [2] concerns the target MffΔTM (residues 1–217), dimeric variant. Briefly: SEC-MALS; MffΔTM (100 μM) and GST (100 μM) on Superose 6 10/300 GL.
Experiment [3] addresses glutathione S-transferase (GST). The experiment is described as above.

Chain of glutathione S-transferase (GST) (enzyme) (P08515 2-218): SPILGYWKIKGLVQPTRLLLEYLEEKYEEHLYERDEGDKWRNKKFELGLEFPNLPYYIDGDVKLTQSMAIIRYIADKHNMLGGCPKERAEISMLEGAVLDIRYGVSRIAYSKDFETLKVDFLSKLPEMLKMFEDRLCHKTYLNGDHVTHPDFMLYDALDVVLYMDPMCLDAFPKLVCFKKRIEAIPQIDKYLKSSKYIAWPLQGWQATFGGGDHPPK

As for “Drp1 short GG (minimal GTPase-GED construct of Drp1, short splice variant) (from UniProt O00429-4 1-327; O00429-4 1-327) (domain or fragment)”, in experiment [1], the stoichiometry N (as a rule, a count of units in the complex or per binding partner) is 2.

Regarding “MffΔTM (residues 1–217), dimeric variant (domain or fragment)”, the stoichiometry N in experiment [2] stood at 2.

For the substance “glutathione S-transferase (GST) (enzyme)”, the stoichiometry N in experiment [3] worked out at 2.

The values above are taken from PMC6051998.
